According to patent publication US20100279937A1, “Method of Inhibiting Angiogenesis, Tumorigenesis and Cathepsin Activity” (priority 2006, published 2010):

B1: CIBP4: IGFBP-4 C-terminal fragment (aas 157-258, SEQ ID No. 6) with StreptagII-octahistidine tag (protein)
chain: MLLLLLLLGLRLQLSLGIASKVNGAPREDARPVPQGSCQSELHRALERLAASQSRTHEDLYIIPIPNCDRNGNFHPKQCHPALDGQRGKCWCVDRKTGVKLPGGLEPKGELDCHQLADSFREVDPWSHPQFEKTGHHHHHHHHGGQ
modifications: StreptagII-octahistidine tag; C-terminal fragment of IGFBP-4

Assays:
[1] = target: T1, cathepsin B (Homo sapiens, UniProt P07858); experiment: Secreted cathepsin B activity in U87MG conditioned media; type: biochemical; settings: 10 μM CA074-ME; overnight incubation
T1 construct: Levels of cathepsin B activity were also measured in U87MG CM alone or pre-incubated; endogenous in cells; host or cells: U87MG (ATCC), 3-day serum-free conditioned medium
Procedure: The human glioma cell line U87MG was established from surgically removed type III glioma/glioblastoma and obtained from ATCC. Cells (5×10^4 cells/ml) were plated in poly-L-lysine pre-coated dishes and grown at 37° C. in D-MEM (DME) supplemented with 100 U/ml penicillin, 100 μg/ml streptomycin and 10% heat-inactivated fetal bovine serum (FBS) (HyClone, Logan, Utah) in humidified atmosphere of 5% CO2/95% air until reached 80% confluence. Then, media were removed and the cells incubated for 3 days in serum-free DME to obtain conditioned media (CM). Conditioned media were collected and filtered (Millex-GV sterilizing filter membrane, 0.22 μm). Cells were then harvested for molecular and biochemical assays. […]

[2] = system: U87MG cells; experiment: U87MG growth in semi-solid (soft) agar; type: cell-based, human; settings: Alamar Blue
Procedure: […] Approximately 15,000 cells±treatment were resuspended in 150 μl medium containing 0.3% agar, and seeded onto a well of a 24-well plate previously layered with 250 μl 0.6% agar. The solidified cell layer was covered with 50 μl DME±treatment which was replaced every three days over a 21 day period. Phase contrast images (6 fields/well) were captured using a digital video camera (Olympus U-CMT) and analyzed with Northern Eclipse v.5.0 software. Color images were transformed to grey scale, thresholded, and then converted to binary images. Number and area of colonies per field were calculated. In order to measure cell viability, at the end of the experiment, 40 μl alamar blue was added to each well and fluorescence readings were performed every 10 min for a period of 180 min. Experiments were repeated 2-3 times in triplicates.

[3] = system: human brain endothelial cells (HBEC); experiment: Confocal microscopy of AF647-CIBP-4 in HBEC; type: cell-based; settings: 100 nM AF647 conjugate, 90 min
Procedure: 80 μl of 1 mM Alexa Fluor 647-NHS in DMSO was added to 0.4 ml of recombinant CIBP-4 (0.2 mg/ml) in 100 mM carbonate pH 8.4, and sample was incubated overnight at room temperature. The reaction was stopped with 150 μl of 200 mM ethanolamine pH 8.0. To remove free dye, sample was diluted with 4.5 ml of water and loaded onto 1 ml Co^+2-Talon Metal Affinity column equilibrated with PBS. The column was exhaustively washed with PBS and CIBP-4 eluted with 2 ml of 1 M imidazole in PBS. To remove imidazole from AF647-CIBP-4 conjugate, the sample was concentrated to approximately 200 μl on Biomax (M.W. cut-off 5,000), diluted to original volume with PBS and concentrated again. That process of concentration/dilution was repeated three times. Final volume 0.5 ml (0.14 mg/ml). Recovery 86%.
HBEC (100,000 cell/well in a 24-well format plate) and U87MG (50,000) were respectively seeded on human fibronectin- (40 μg/ml) or poly-L-lysine-coated cover slips (Bellco Biotechnology) in 400 μl HBEC/U87MG media and grown until reached 80% confluence. Cells were then washed twice with DME and incubated in DME for 30 min at 37° C. […] Confocal images of […] were sequentially obtained using 488, 647 and 540-590 nm excitation laser lines to detect DiOC5(3) (510-525 nm emission) and Alexa 647 (670-810 nm emission) and Magic Red™ Cathepsin B (>610 nm) fluorescence.

[4] = system: U87MG cells on CAM; experiment: Experimental glioma assay: U87MG tumors on chick chorioallantoic membrane (CAM); type: in vivo, chicken (Gallus gallus)
Procedure: Fertilized chicken (Gallus gallus) eggs were obtained from the Canadian Food Inspection Agency and placed into an egg incubator at 37° C. and 67-70% humidity (day 0). At day 3, windows were cut in the egg shell and covered with surgical tape (Durapore,) until day 10. Then, a sterile Nunc Thermanox (Nunc Inc., Naperville, Ill.) plastic ring was placed onto the CAM, the delimited surface gently lacerated with a scalpel blade and a pellet of 10^6 U87MG cells deposited into the center of the ring. […] Digital photos were taken using a Canon 40D camera. At day 17, tumors were carefully removed from the CAM and weighted.

[5] = system: human brain endothelial cells (HBEC); experiment: Capillary-like tube (CLT) formation by HBEC on Matrigel (in vitro angiogenesis); type: cell-based; settings: 20 nM; stimuli U87MG CM, VEGF, IGF-1, bFGF; overnight
Procedure: Human brain endothelial cells (HBEC) were obtained from small intracortical microvessels and capillaries (20-112 μm) harvested from temporal cortex from patients treated surgically for idiopathic epilepsy. Tissues were obtained with approval from the Institutional Research Ethics Committee. HBEC were separated from smooth muscle cells with cloning rings and grown at 37° C. in HBEC media containing Earle's salts, 25 mM 4-(2-hydroxyethyl)-1-piperazineethanesulfonic acid (HEPES), 4.35 g/L sodium bicarbonate, and 3 mM L-glutamine, 10% FBS, 5% human serum, 20% of media conditioned by murine melanoma cells (mouse melanoma, Cloudman S91, clone M-3, melanin-producing cells), 5 μg/ml insulin, […], 5 ng/ml selenium, and 10 μg/ml endothelial cell growth supplement. HBEC cultures were routinely characterized morphologically and biochemically.
In vitro angiogenesis was assessed by endothelial tube formation in growth factor reduced Matrigel™ (BD Bioscience, Bedford, Mass.). 24-well plates were coated with 300 μl of unpolymerized Matrigel™ (5-7 mg prot/ml) and allowed to polymerize for 90 min at 37° C. HBEC (40,000 cells) were suspended in 500 μl of either DME, serum-free U87MG CM (collected as described in Cell Cultures) or growth factors (VEGF, IGF-1, bFGF) in the absence or presence of 20 nM of either full length recombinant IGFBP-1 (IBP1, produced at BRI-NRC), IGFBP-2 (IBP2, produced at BRI-NRC and purchased from R&D systems, Minneapolis), IGFBP-3 (IBP3, from R&D systems), IGFBP-4 (IBP4, produced at BRI-NRC), IGFBP-5 (IBP5, produced at BRI-NRC and purchased from R&D systems) and IGFBP-6 (IBP6, from R&D systems) or the C-terminal protein fragments of IGFP-1 (CIBP1), IGFBP-2 (CIBP2), IGFBP-4 (CIBP4), IGFBP-5 (CIBP5) and IGFBP-6 (CIBP6), all produced at BRI-NRC). The ability of a synthetic membrane permeable cathepsin B inhibitor (CA074-ME, EMD Biosciences, Canada) to inhibit angiogenes and cathepsin B activity was also studied. CLT formation was analyzed after 24 h using an Olympus 1×50 microscope. Phase contrast images were captured with a digital video camera (Olympus U-CMT) and analyzed using Northern Eclipse v.5.0 software. Experiments were repeated three times. In order to determine the levels of cathepsin B activity in each experimental condition, at the end of the experiment, 6 μl of 26× Magic Red™ Cathepsin B reagent (Immunochemistry Technologies, LLC) were added to all the wells and maintained at 37° C. in dark for two hours. Cells were washed twice with HBSS and intracellular fluorescence quantification (530/25 nm excitation and 645/40 nm emission) was performed using a cytofluorimeter plate reader (Bio-Tek FL600).

[6] = system: U87MG cells; settings: disclosed in copending PCT/CA2006/000250; cited from earlier work
[7] = system: human brain endothelial cells (HBEC); settings: disclosed in copending PCT/CA2006/000250; cited from earlier work

Molecule	inhibition of secreted cathepsin B activity in U87MG CM [1] [%]	inhibition of U87MG colony formation in soft agar (efficacy) ([2]; 10 μM CA074-ME) [%]	co-localization with lysosomes (Lysotracker) in HBEC [3]	average size of the tumors in each weight interval vs vehicle ([4]; CAM)	increase in small size tumors (0-15 mg) vs vehicle ([4]; CAM)	reduction in number of large size tumors (20-36 mg) vs vehicle ([4]; CAM) [fold]	shift of tumor weight frequency distribution towards smaller tumors vs vehicle ([4]; CAM, intervals 0-15, 15-20, 20-36 mg) [fold]	reduction of growth of U87MG cells on CAM (tumor weight) vs vehicle ([4]; CIBP4 250 ng/ml as printed, applied days 11-14, weighed day 17, p<0.005)	inhibition of angiogenesis (CLT formation by HBEC in Matrigel) [5]	inhibition of U87MG colony formation in soft agar (efficacy) ([2]; 20 nM) [%]	reduction of U87MG colony formation in soft agar [6]	inhibition of angiogenic response induced by U87MG conditioned media and growth factors (bFGF, VEGF, IGF-1) [7]
CCCNC(=O)[C@H]1O[C@@H]1C(=O)N[C@H](C(=O)N1CCC[C@H]1C(=O)OC)[C@@H](C)CC [CA074-ME, reference compound]	~40	~70										
B1			Co-localization	similar	three-fold	3	~3	20-25%	reduction in CLT formation	~50	able to reduce U87MG colony formation	can inhibit angiogenic response
